Assay results published in paper PMC11423142, “Clec7a Worsens Long‐Term Outcomes after Ischemic Stroke by Aggravating Microglia‐Mediated Synapse Elimination” (Advanced Science, 2024).

Biological target: T1, purified human Clec7a protein (R&D Systems Cat. 1859-DC-050) (human, UniProt Q9BXN2 66-247)
T1 construct: Clec7a, human, bought recombinant protein; source: bought: R&D Systems (Cat. 1859-DC-050)
T1 sequence (looked up): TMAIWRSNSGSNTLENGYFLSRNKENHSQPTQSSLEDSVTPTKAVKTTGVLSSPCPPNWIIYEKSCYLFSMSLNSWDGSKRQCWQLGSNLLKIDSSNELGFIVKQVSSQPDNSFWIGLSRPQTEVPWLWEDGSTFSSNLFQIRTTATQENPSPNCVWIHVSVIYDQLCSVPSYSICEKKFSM
Test: MST; Monolith NT.115, 20 °C, 20 mM HEPES pH 8.0, 150 mM NaCl; Clec7a constant at 50 nM, MD2 varied from 10 µM to 1.2 nM; n = 3
Details: both partners purified

Kd: 2960 nM
B1: human MD2 protein (R&D Systems Cat. 1787-MD) (ligand, UniProt Q9Y6Y9 19-160, looked up)
chain: QKQYWVCNSSDASISYTYCDKMQYPISINVNPCIELKRSKGLLHIFYIPRRDLKQLYFNLYITVNTMNLPKRKEVICRGSDDDYSFCRALKGETVNTTISFSFKGIKFSKGKYKCVVEAISGSPEEMLFCLEFVILHQPNSN
notes: MD2 (lymphocyte antigen 96), human, bought recombinant protein; source: bought: R&D Systems (Cat. 1787-MD)
